Laboratory results taken from the Human Domainome abundance scans (Beltran et al. 2025).
± gives the uncertainty stated by the source.

B1: Zinc finger MYM-type protein 3, residues 405 to 444; numbered along this chain, Q14202 (parent)
chain: DATRCSICQKTGEVLHEVSNGSVVHRLCSDSCFSKFRANK

Variants of: B1
Experiment: abundance fitness (aPCA) (normalised: wild type 0, dead -1); higher = more abundant; growth selection in yeast, the domain comes from the species named
Conditions: Homo sapiens

Row | Variant | abundance fitness
1 | DATRCSICQKTGEVLHEVSNGSVVQRLCSDSCFSKFRANK | -0.038 ± 0.065
2 | DATRCSICQKTGEVLHEVSNGSVVHRLCSDVCFSKFRANK | -0.032 ± 0.056
3 | DATRCSICQKTGEVLHEVSNGSVVHRLCSDACFSKFRANK | -0.063 ± 0.058
4 | DATRCSICQKTGEVLHEVSNGSVVHRLCSDLCFSKFRANK | -0.022 ± 0.059
5 | DATRCSICQKTGEVLHEVSNGSVVHRLCSDWCFSKFRANK | -0.218 ± 0.066
6 | DATRCSICQKTGEVLHEVSNGSVVHRLCSDSCFSKFRANY | -0.072 ± 0.45
7 | DATRCSICQKTGEVLHEVSNGSVVHRLCSDSCFSKFRANN | 0.15 ± 0.13
8 | DATRCSICQKTGEVLHEVSNGSVVHRLCSDSCFSKFRANW | -0.116 ± 0.14
9 | DATRCSICQKTGEVLHEVSNGSVVHRLCSDSCFSKFRANC | 0.205 ± 0.16
10 | DATRCSICQKTGKVLHEVSNGSVVHRLCSDSCFSKFRANK | -0.049 ± 0.075
11 | DATRCSICQKTGQVLHEVSNGSVVHRLCSDSCFSKFRANK | -0.052 ± 0.072
12 | DATRCSICQKTGVVLHEVSNGSVVHRLCSDSCFSKFRANK | -0.298 ± 0.057
13 | DATRCSICQKTGRVLHEVSNGSVVHRLCSDSCFSKFRANK | -0.19 ± 0.051
14 | DATRCSICQKTGIVLHEVSNGSVVHRLCSDSCFSKFRANK | -0.448 ± 0.11
15 | DATRCSICQKTGEVLHEVSNGSVYHRLCSDSCFSKFRANK | -0.133 ± 0.072
16 | DATRCSICQKTGEVLHEVSNGSVKHRLCSDSCFSKFRANK | 0.032 ± 0.068
17 | DATRCSICQKTGEVLHEVSNGSMVHRLCSDSCFSKFRANK | 0.13 ± 0.079
18 | DATRCSICQKTGEVLHEVSNGSGVHRLCSDSCFSKFRANK | 0.018 ± 0.054
19 | GATRCSICQKTGEVLHEVSNGSVVHRLCSDSCFSKFRANK | 0.154 ± 0.054
20 | LATRCSICQKTGEVLHEVSNGSVVHRLCSDSCFSKFRANK | -0.07 ± 0.11
21 | DATRCSICQKTGETLHEVSNGSVVHRLCSDSCFSKFRANK | -0.033 ± 0.063

Row | Variant | abundance fitness
22 | DATRCSICQKTGEELHEVSNGSVVHRLCSDSCFSKFRANK | -0.453 ± 0.073
23 | DATRCSICQKTGEVLHEVSNGSVVHRLCSDSCFSTFRANK | 0.058 ± 0.066
24 | DATRCSICQKTGEVLHEVSNGSVVHRLCSDSCFSAFRANK | 0.119 ± 0.054
25 | DATRCSICQKTGEVLHEVSNGSVVHRLCSDSCFSCFRANK | -0.959 ± 0.11
26 | DATRCSICQKTGEVLHEVSNGSVVHRLCSDSCFSMFRANK | 0.078 ± 0.07
27 | DATRCSICQKTGEVLHEVSNGSVVHRLCSDSCFSKQRANK | 0.002 ± 0.074
28 | DATRCSICQKTGEVLHEVSNGSVVHRLCSDSCFSKSRANK | -0.178 ± 0.064
29 | DATRCSICQKTGEVLHEVSNGSVVHRLCSDSCFSKNRANK | -0.772 ± 0.14
30 | DATRCSIKQKTGEVLHEVSNGSVVHRLCSDSCFSKFRANK | -0.999 ± 0.097
31 | DATRCSIEQKTGEVLHEVSNGSVVHRLCSDSCFSKFRANK | -0.85 ± 0.074
32 | DATRCSIRQKTGEVLHEVSNGSVVHRLCSDSCFSKFRANK | -0.787 ± 0.057
33 | DATRCSITQKTGEVLHEVSNGSVVHRLCSDSCFSKFRANK | -0.61 ± 0.072
34 | DATRCSIWQKTGEVLHEVSNGSVVHRLCSDSCFSKFRANK | -1.19 ± 0.095
35 | DATRCSICQKTGEVLHEVSNGSVVHRLCSDSCFSKFEANK | 0.395 ± 0.061
36 | DATRCSICQKTGEVLHEVSNGSVVHRLCSDSCFSKFKANK | 0.199 ± 0.067
37 | DATRCSICQKTGEVLHEVSNGSVVHRLCSDSCFSKFYANK | -0.283 ± 0.15
38 | DATRCSICQKTGEVLHEVSNGSVVHRLCSYSCFSKFRANK | -0.857 ± 0.34
39 | DATRCSICQKTGEVLHEVSNGSVVHRLCSRSCFSKFRANK | -0.231 ± 0.056
40 | DATRCSICQKTGEVLHEVSNGSVVHRLCSSSCFSKFRANK | -0.387 ± 0.073
41 | DATRCSICQKTGEVLHEVSNGSVVHRLCSDSCFSKFRALK | 0.037 ± 0.065
42 | DATRCSICQKTGEVLHEVSNGSVVHRLCSDSCFSKFRAQK | 0.29 ± 0.078

Row | Variant | abundance fitness
43 | DATRCSICQKTGEVLHEVSNGSVVHRLCSDSCFSKFRAPK | 0.043 ± 0.073
44 | DATTCSICQKTGEVLHEVSNGSVVHRLCSDSCFSKFRANK | -0.125 ± 0.064
45 | DATLCSICQKTGEVLHEVSNGSVVHRLCSDSCFSKFRANK | -0.32 ± 0.054
46 | DATACSICQKTGEVLHEVSNGSVVHRLCSDSCFSKFRANK | -0.2 ± 0.056
47 | DATICSICQKTGEVLHEVSNGSVVHRLCSDSCFSKFRANK | 0.211 ± 0.062
48 | DATRCSICQKTGEVLHEVSNGSVVHRLCSDSLFSKFRANK | -0.676 ± 0.076
49 | DATRCSICQKTGEVLHEVSNGPVVHRLCSDSCFSKFRANK | -0.039 ± 0.066
50 | DATRCSICQKTGEVLHEVSNGMVVHRLCSDSCFSKFRANK | 0.021 ± 0.068
51 | DATRCSICQKTGEVLHEVSNGWVVHRLCSDSCFSKFRANK | -0.419 ± 0.076
52 | DATRCSICQKTGEVLHEVSNGIVVHRLCSDSCFSKFRANK | -0.153 ± 0.073
53 | DATRCSICQKTGEVLHEVSNGVVVHRLCSDSCFSKFRANK | -0.571 ± 0.06
54 | DMTRCSICQKTGEVLHEVSNGSVVHRLCSDSCFSKFRANK | 0.48 ± 0.064
55 | DQTRCSICQKTGEVLHEVSNGSVVHRLCSDSCFSKFRANK | 0.285 ± 0.069
56 | DTTRCSICQKTGEVLHEVSNGSVVHRLCSDSCFSKFRANK | 0.35 ± 0.062
57 | DAIRCSICQKTGEVLHEVSNGSVVHRLCSDSCFSKFRANK | -0.028 ± 0.075
58 | DAARCSICQKTGEVLHEVSNGSVVHRLCSDSCFSKFRANK | -0.366 ± 0.057
59 | DAWRCSICQKTGEVLHEVSNGSVVHRLCSDSCFSKFRANK | -0.085 ± 0.058
60 | DAVRCSICQKTGEVLHEVSNGSVVHRLCSDSCFSKFRANK | -0.388 ± 0.056
61 | DAYRCSICQKTGEVLHEVSNGSVVHRLCSDSCFSKFRANK | -0.025 ± 0.075
62 | DATRCSICQKTGEVLHEVSNGSVVHRLCSDSCCSKFRANK | -0.11 ± 0.15
63 | DATRCSICQKTGEVLHEVSNGSVVHRLCSDSCDSKFRANK | -0.016 ± 0.081
